Measurements taken from US20240182575A1 (Ablynx, published 2024).

Legend:
[1] = biological target: T1, rhB7-H2-Fc (fusion protein of the extracellular part of human B7-H2 (ICOSL) and mouse Fc gamma 1, R&D Systems … (human; mouse, UniProt O75144 19-256; P01868 98-324 = IgG part, limits assumed); test: ELISA, coated B7-H2
T1 construct: extracellular domain;domain: Fc; bought; also called B7-H2 ectodomain
Method: Next, 10 μl of periplasmic extract containing Nanobody of the different clones in 100 μl 2% Marvel PBST were allowed to bind to the immobilized antigen. […] Binding specificity was determined based on OD values compared to controls having received no Nanobody (low control).
After expression, the Nanobodies were purified via the His-tag on Talon beads.

[2] = biological target: T2, HuCD86-MuIgG2a (fusion protein of the extracellular part of human CD86 and mouse Fc gamma 2a, Ancell Cat … (human; mouse, UniProt P42081 24-247; P01863 98-330 = IgG part); test: competition ELISA, coated CD86-Ig; blocked ligand CD28-Ig
T2 construct: extracellular domain;domain: Fc; bought; also called B7-2

[3] = biological target: T3, human CD28 on Jurkat cells (human, UniProt P10747 19-220); test: FACS competition, Jurkat cells; blocked ligand CD80-Fc
T3 construct: whole, on cells; also called native form of the CD28 antigen; cell expressed CD28
Source text: The potency of cell-expressed CD28 binding Nanobodies to inhibit the interaction of CD28 with either CD80 or CD86 was also ranked using FACS based screening method. […] Dead cells were stained by including TOPRO3 vital dye in the final resuspension buffer. All samples were read on a BD FACSarray instrument. Dead cells were excluded from the analysis by gating out TOPRO3 vital dye positive scoring cells.

[4] = biological target: T4, HuCD28-HuIgG1 (fusion protein of the extracellular part of human CD28 and human Fc gamma 1, R&D Systems Cat … (human, UniProt P10747 19-152; P01857 100-330 = IgG part); test: competition ELISA, CD28-hFc in solution; blocked ligand coated B7-1-muFc
T4 construct: extracellular domain;domain: Fc; bought; also called CD28-Ig; hCD28-Fc

[5] = biological target: T5, HuCTLA4-HuIgG1 (fusion protein of the extracellular part of human CD152 and human Fc gamma 1, CTLA4-Ig) (human, UniProt P16410 36-161); test: SPR, Biacore T100, CTLA4-Ig amine-coupled
T5 construct: extracellular domain; also called CTLA4-hFc; CTLA4-Fc; not shown: human Fc gamma 1
Method: Affinity constants (Kd) of individual purified Nanobody clones were determined by surface plasmon resonance on a Biacore T100 instrument. […] Remaining reactive groups were inactivated using ethanolamine. […] Each sample was injected for 2 min at a flow rate of 45 μl/min to allow for binding to chip-bound antigen. Next, binding buffer without Nanobody was sent over the chip at the same flow rate to allow for dissociation of bound Nanobody. After 2 min, remaining bound analyte was removed by injecting regeneration solution (10 mM Glycine/HCl pH 1.5). Binding curves obtained at different concentrations of Nanobody were used to calculate KD values. For some clones, only a single undetermined concentrations of Nanobody was injected.

[6] = biological target: T6, cynomolgus monkey CTLA4 on stably transfected CHO-K1 cells (human CTLA4 cDNA with S13N, I17T and L105M) (human backbone with cynomolgus monkey …, UniProt P16410 36-223); test: FACS, direct binding titration on cyno CTLA4 CHO cells (head prints IC50)
T6 chain: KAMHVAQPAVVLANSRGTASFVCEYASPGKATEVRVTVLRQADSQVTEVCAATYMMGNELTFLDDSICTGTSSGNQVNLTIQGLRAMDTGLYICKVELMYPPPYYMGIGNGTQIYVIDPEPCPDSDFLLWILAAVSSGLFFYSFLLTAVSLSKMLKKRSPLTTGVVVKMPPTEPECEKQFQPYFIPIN

[7] = biological target: T7, human CTLA4 (Y201 mutated to valine) on stably transfected CHO-K1 cells (human, UniProt P16410 36-223); test: FACS, direct binding titration on human CTLA4 CHO cells (head prints IC50)
T7 construct: whole, on cells; the mutation of the intracellular position Y201 keeps the protein on the membrane; also called human CTLA4 overexpressing CHO cells; human CTLA4 transfectant
Method: Binding of putative CTLA4 reactive Nanobodies clones was detected using unlabeled anti-c-myc tag mouse monoclonal antibody 9E10, followed by a phycoerythrin conjugated F(ab′)2 derived from goat-anti-mouse IgG (human and bovine crossabsorbed), and read on a BD FACSarray instrument. Dead cells were excluded from the analysis by gating out TOPRO3 vital dye positive scoring cells. Binding of the Nanobodies to cells was evaluated in BD FACSarray control software as PE channel histograms.

[8] = biological target: T7, human CTLA4 (Y201 mutated to valine) on …; test: FACS competition, human CTLA4 CHO cells; blocked ligand CD80-Fc
Source text: The potency of selected Nanobodies to inhibit the interaction of CTLA4 with CD80 was also ranked using FACS based screening method. […] This concentration was previously determined to be the minimal amount required to saturate all CD80 binding sites on both human and cyno CTLA4 expressing CHO cell clones in the absence of any CTLA4 interaction blocking proteins. […] Dead cells were stained by including TOPRO3 vital dye in the final resuspension buffer. All samples were read on a BD FACSarray instrument. Dead cells were excluded from the analysis by gating out TOPRO3 vital dye positive scoring cells.

[9] = biological target: T8, rhB7H1-Fc (fusion protein of the extracellular part of human B7-H1 (PD-L1) and mouse Fc gamma 1, R&D Systems … (human; mouse, UniProt Q9NZQ7 19-238; P01868 98-324 = IgG part, limits assumed); test: ELISA, coated B7-H1
T8 construct: extracellular domain;domain: Fc; bought; also called B7-H1 ectodomain

[10] = biological target: T8, rhB7H1-Fc (fusion protein of the …); test: competition ELISA, coated B7-H1; blocked ligand PD-1-biotin
Method: Next, 0.5 μg/ml of PD-1 was preincubated with a dilution series of purified Nanobody.

[11] = biological target: T9, rhPDL2-Fc (fusion protein of the extracellular part of human PD-L2 and mouse Fc gamma 1, R&D Systems Cat … (human; mouse, UniProt Q9BQ51 20-220; P01868 98-324 = IgG part, limits assumed); test: ELISA, coated PD-L2
T9 construct: extracellular domain;domain: Fc; bought; also called PD-L2 ectodomain
Method: In short, 5 μg/ml PD-L2 ectodomain (R&D Systems, Minneapolis, US, Cat #1224-PL) was immobilized on maxisorp microtiter plates (Nunc, Wiesbaden, Germany) and free binding sites were blocked using 4% Marvel in PBS. Next, 10 μl of periplasmic extract containing Nanobody of the different clones in 100 μl 2% Marvel PBST were allowed to bind to the immobilized antigen. […] Binding specificity was determined based on OD values compared to controls having received no Nanobody (low control).
After expression, the obtained Nanobodies were purified via the His-tag on Talon beads.

[12] = biological target: T9, rhPDL2-Fc (fusion protein of the …); test: competition ELISA, coated PD-L2; blocked ligand PD-1-biotin
Method: In short, 2 μg/ml PD-L2 ectodomain (R&D Systems, Minneapolis, US, Cat #1224-PL) was immobilized on maxisorp microtiter plates (Nunc, Wiesbaden, Germany) and free binding sites were blocked using 4% Marvel in PBS. Next, 0.5 μg/ml of PD-1 was preincubated with a dilution series of purified Nanobody.

[13] = biological target: T5, HuCTLA4-HuIgG1 (fusion protein of the …); test: alphascreen; competitor biotinylated HuCD80-MuIgG2a
Source text: Individual clones were scored as putative CTLA4/CD80 interaction inhibiting if the presence of the periplasmic extract decreased the fluorescent signal of the acceptor beads.

B1: 95E6 (VHH)
VHH: EVQLVESGGALVQPGGSLRLSCAASGFTLGDYVIGWFRQAPGKEREWVSGISSRDDTTYYANSVKGRFTISRDNAKNTMYLQMNSLKPEDSAVYYCALRSGIAVARAPTNYDYWGQGTQVTVSS
notes: Nanobody against B7-H2 (ICOSL)
binding result [1]: binds

B2: CD8086PMP2B4 (VHH)
VHH: EVQLVESGGGLVQAGGSLRLSCAASGSIFSIYTMGWYRQAPGEQRELVAAITSGGSTNYADSVKGRFTISRDNAKNTVYLQMNSLKPEDTAVYYCNAIAHEEGVYRWDFWGQGTQVTVSS
notes: not shown: C-terminal c-myc tag and His6 tag
binding result [2]: binds

B3: 65B2 (VHH)
VHH: EVQLVESGGGLVQAGGSLRLSCATSGRTFSSDVMGWFRQAPGKEREFVAAINRSGHSTSYTGSVKGRFAISRDNTKNTVYLQMNSLKPEDTAVYYCALRLWSDYLAQKSGEYNYWGQGTQVTVSS
notes: Nanobody against CD28
IC50 (read off the curve) [3]: ~200 ng/well | IC50 (read off the curve) [4]: ~200 nM

B4: 4CTLAPMP02F2 (VHH)
VHH: EVQLMESGGGLVQTGGSLRLSCAASGRTFSNYTMGWFRQAPGKDREFVAAISRSGSLKAYADSVKGRFTPSRDNAKKMAYLQMNSLKPEDTAVYYCAAAPVPWGTRPSLFPYDSWGQGTQVTVSS
notes: short label tied to the entry by the clone code only; not shown: C-terminal c-myc tag and His6 tag
Kd [5]: 0.638 nM | koff [5]: 0.00391 s⁻¹ | kon [5]: 6.13e+06 M⁻¹ s⁻¹ | IC50 [6]: 2.42 nM | IC50 [7]: 2.56 nM | IC50 (read off the curve) [8]: ~10 nM

B5: 4CTLAPMP02G2 (VHH)
VHH: EVQLVESRGGLVQTGGSLRLSCAASGRTFSNYTMGWFRQAPGKDREFVAAISRSGSLKSYADSVKGRFTISRDNAKKMAYLQMNSLKPEDTAVYYCAAAPVPWGTRPSFFTYDSWGQGTQVTVSS
notes: as for B4
Kd [5]: 0.478 nM | koff [5]: 0.00355 s⁻¹ | kon [5]: 7.42e+06 M⁻¹ s⁻¹ | IC50 [6]: 2.08 nM | IC50 [7]: 2.28 nM | IC50 (read off the curve) [8]: ~8 nM

B6: 104D2 (VHH)
VHH: EVQLVESGGGLVQPGGSLRLSCAASGFTLDYYAIGWFRQAPGKEREWASSISSSDGSTYYADSVKGRFTISRDNAKNTVFLQMNSLKPEDTAVYSCAASQAPITIATMMKPFYDYWGQGTQVTVSS
EC50 (read off the curve) [9]: 5 to 6 nM | IC50 (read off the curve) [10]: ~10 nM

B7: 104F5 (VHH)
VHH: EVQLVESGGGLVQPGGSLRLSCAASGFTLDYYAKCWFRQAPGKEREWVSCISSSDGSTYYADSVKGRFTISRDNAKNTVYLQMNSLKPEDTAVYFCAARHGGPLTVEYFFDYWGQGTQVTVSS
EC50 (read off the curve) [9]: ~3 nM | IC50 (read off the curve) [10]: ~9 nM

B8: 104E12 (VHH)
VHH: EVQLVESGGGLVQPGGSLRLSCAASGFTFDYYAIGWFRQAPGKAREGVSCISGGDNSTYYADSVKGRFTISRDNAKNTVYLQMNSLKPEDTAVYYCATGGWKYCSGYDPEYIYWGQGTQVTVSS
EC50 (read off the curve) [9]: ~10 nM

B9: 104B10 (VHH)
VHH: EVQLVESGGGLVQAGGSLRLSCAASGSTFSQYDVGWYRQAPGKQRELVAFSSSGGRTIYPDSVKGRFTFSRDNTKNTVYLQMTSLKPEDTAVYYCKIDWYLNSYWGQGTQVTVSS
IC50 (read off the curve) [10]: ~20 nM

B10: 103D3 (VHH)
VHH: EVQLVESGGGLVEPGGSLRLSCVASGFTFSSYDMSWVRQAPGKGLEWVSTINSGGGITYRGSVKGRFTISRDNAKNTLYLQMNSLKPEDTAVYYCENGGSSYRRGQGTQVTVSS
notes: Nanobody against PD-L2
EC50 (read off the curve) [11]: ~7 nM | IC50 (read off the curve) [12]: ~10 nM

B11: 103E3 (VHH)
VHH: EVQLVESGGGLVQTGGSLRLSCAASGFTLDYYGIGWFRQAPGKEREGVSFISGSDGSTYYAESVKGRFTISRDKAKNTVYLQMNSLKPEDTAVYYCAADPWGPPSIATMTSYEYKHWGQGTQVTVSS
notes: Nanobody against PD-L2
binding result [11]: binds

B12: 103F10 (VHH)
VHH: EVQLVESGGGLVQAGGSLRLSCAASGRTFSSGTMGWFRRAPGKEREFVASIPWSGGRTYYADSVKDRFTISRDNAQNTVFLQMNSLKPEDTAVYYCAFKERSTGWDFASWGQGIQVTVSS
notes: Nanobody against PD-L2
EC50 (read off the curve) [11]: ~20 nM

B13: 4CTLAPMP2G9 (VHH)
VHH: EVQLVKSGGQLVQAGGSLRLSCAATGRTYNSYPLGWFRQAPGKEREFVAAISASGTLRAYADSVKGRFTISRDSAKNTVYLQMNNLKPEDTAVYYCARARSVGWRASHHLSDYDNWGQGTQVTVSS
notes: as for B4
Kd [5]: 1.69 nM | koff [5]: 0.00732 s⁻¹ | kon [5]: 4.35e+06 M⁻¹ s⁻¹ | IC50 [13]: 2.01 nM | IC50 [6]: 2.66 nM | IC50 [7]: 2.47 nM
